In the RNAGym collection of RNA variant scans (doi:10.7554/elife.80360):

B1: HDV Ribozyme (parent)
chain: GGCCGGCAUGGUCCCAGCCUCCUCGCUGGCGCCGGCUGGGCAACAUUCCGAGGGGACCGUCCCCUCGGUAAUGGCGAAUGGGACCCA

Variants of: B1
Assay: self-cleavage, relative activity (ratio to wild type); higher = more cleavage; co-transcriptional

For GGCCGGCAUGGUCCUAGCCUCCUCGCUGGCGCUGGCUGGGCAACAUUCCGAGGGGACCGUCCCCUCGGUAAUGGCGAAUGGGACCCA [C15U C33U], which self-cleavage is on record?
Its self-cleavage is 0.708.

For GGCCGGCAUGGUCCCAGCCUCCUCGCUGGCGCCGGCUGGGCAACAUGCCGAGGGGACCGUCCCCUCGGUAUUGGCGAAUGGGACCCA [U47G A71U], which self-cleavage is on record?
Its self-cleavage is 1.18.

Which self-cleavage does the source give for GGCCGGCAGGGUCCCAGCCUCCUCGCUGGCGCCGGCUGGGCAAGAUUCCGAGGGGACCGUCCCCUCGGUAAUGGCGAAUGGGACCCA [U9G C44G] here?
The self-cleavage was 0.7.

With GGCCGGCAUGGUCCCAGCCUCCUCGCUGGCGCCCGCUGGGCAACAUUCCGAGGGGACCGACCCCUCGGUAAUGGCGAAUGGGACCCA [G34C U60A] as the variant, how does the self-cleavage read?
Its self-cleavage is 0.306.

Which self-cleavage does the source give for GGCCGGCAUGGUCCCAGUCUCCUCGCUGGCGCCGGCUGGGCAACAUUCCGAGGGGACCAUCCCCUCGGUAAUGGCGAAUGGGACCCA [C18U G59A] here?
The self-cleavage was 0.896.

For GGCCGGCAUGGUCCCAGCCUCCUCGCUGGCGCCGGCUGGGAAACAUUCCGAGGGGACCGUCCCCUCGGUAAUGGCGCAUGGGACCCA [C41A A77C], which self-cleavage is on record?
The self-cleavage was 0.172.

With AGCCGGCAUGGUCCCAGCCACCUCGCUGGCGCCGGCUGGGCAACAUUCCGAGGGGACCGUCCCCUCGGUAAUGGCGAAUGGGACCCA [G1A U20A] as the variant, how does the self-cleavage read?
Its self-cleavage is 0.0594.

Which self-cleavage does the source give for GGCCGGCAUGGUCCCAGCCUCAUCGCUGGCGACGGCUGGGCAACAUUCCGAGGGGACCGUCCCCUCGGUAAUGGCGAAUGGGACCCA [C22A C32A] here?
Its self-cleavage is 0.0678.

With GGCCGGCAUGGUCCCAGCCUCCUCGCUGGCGCCGGCUGGGCAACAUUCCGAGGGGAGCGUCCCCUCGGUAAUGGCGAAUGGGACUCA [C57G C85U] as the variant, how does the self-cleavage read?
The self-cleavage was 0.849.

Which self-cleavage does the source give for GGCCGGCAUGGUCCCAGCCUCCUCGCUGGCGCCGGUUGGGCAACAUUCCGAGGGGGCCGUCCCCUCGGUAAUGGCGAAUGGGACCCA [C36U A56G] here?
The self-cleavage was 0.628.

Which self-cleavage does the source give for GGCCGGCAUGGUCCCAGCCUCCUCGCUGGCGCCGGCUUGGCAAUAUUCCGAGGGGACCGUCCCCUCGGUAAUGGCGAAUGGGACCCA [G38U C44U] here?
The self-cleavage was 0.126.

With GGCCGGCAUGGUCCCAACCUCCUCGCUGGCGCCGGCUGGGCGACAUUCCGAGGGGACCGUCCCCUCGGUAAUGGCGAAUGGGACCCA [G17A A42G] as the variant, how does the self-cleavage read?
The self-cleavage was 0.119.

For GGCCGGCAUGGUCCCAGCCACCUCGCUGGCGCCGGCUGGGCAACAUUCCGAGGGGACCGUCCCCUCGGUAAUGGCGAAUAGGACCCA [U20A G80A], which self-cleavage is on record?
The self-cleavage was 0.0712.

Which self-cleavage does the source give for GGCCGGCAUGGUCCCAGCCUCCUCGCUGGCGCCGGCUGGGCAACAUUCCGAGGGGACCUUCCCCUCGGUAAAGGCGAAUGGGACCCA [G59U U72A] here?
The self-cleavage was 0.665.

With GGCCGGCAUGGUCCCAGCCUCCUCGCUGGCGACGGCUGGGCAACAUUCCGAGGGGACCGUCCCCUCGGUACUGGCGAAUGGGACCCA [C32A A71C] as the variant, how does the self-cleavage read?
The self-cleavage was 0.

For GGCCGGCAUGGUACCAGCCUCCUCGCUGGCUCCGGCUGGGCAACAUUCCGAGGGGACCGUCCCCUCGGUAAUGGCGAAUGGGACCCA [C13A G31U], which self-cleavage is on record?
Its self-cleavage is 0.0604.

Which self-cleavage does the source give for GGCCGGCAUGGUCCCAGCCUCUUCGCUGGCGCCGGCUGGGCAACAUUCCGAGGGGACCGUCCCCUCGGUAAUGGCGAAUGGGAGCCA [C22U C84G] here?
Its self-cleavage is 0.291.

Which self-cleavage does the source give for GGCCGGCAUGGUCACAGCCUCCUCGCUGGCGCCGGCUGGGCAACAUUCCGAGGGGACCGUCCCCUCGGUACUGGCGAAUGGGACCCA [C14A A71C] here?
Its self-cleavage is 0.166.

With GGCCGGCAUGGUCCCAGCCUCCUCGCUGGCGCCGGCUGGGCAACAUUCCGAGGGGACCGUCCCCUCGGUAAUGGCGAAAGAGACCCA [U79A G81A] as the variant, how does the self-cleavage read?
The self-cleavage was 0.0773.

Which self-cleavage does the source give for GGCCGGCAUGGUCCCAGCCUCCUCGCUGGCGCCAGCUGGGCAACAUUCCGAGGGAACCGUCCCCUCGGUAAUGGCGAAUGGGACCCA [G34A G55A] here?
Its self-cleavage is 0.17.

With GGCCGGCCUGGUCCCAGCCUCCUCGCUGGCGCCGGCUGGGCAACAUUCCGAGGGGACCGUCCCCUCGGUAAUGGCCAAUGGGACCCA [A8C G76C] as the variant, how does the self-cleavage read?
The self-cleavage was 0.705.

Which self-cleavage does the source give for GGCCGGCAUGGUCCCAGCCUCCUCGCGGGCGCCGGCUGGGCAACAUUCCGAGGGGACCGUCCCCUCGGUAAAGGCGAAUGGGACCCA [U27G U72A] here?
The self-cleavage was 0.361.

Which self-cleavage does the source give for GGCCGGCAUGGUCCCAGUCUCCUCGCUGGCGCCGGCUGGCCAACAUUCCGAGGGGACCGUCCCCUCGGUAAUGGCGAAUGGGACCCA [C18U G40C] here?
Its self-cleavage is 0.281.

Which self-cleavage does the source give for GGCCGGUAUGGUCCCAGCCUCCUCGCUGGCGCCGGCUGGGCAACAUUCCGAGGGGACCGUCCCCUCGGUAAUGGCGAAUGAGACCCA [C7U G81A] here?
The self-cleavage was 0.352.

For AGCCGGCAUGGUCCCAGCCUCCUCGCUGGCGCCGGCUGGGCAACAUUCCGAGGGGACCGUCCCCUCGGUAAAGGCGAAUGGGACCCA [G1A U72A], which self-cleavage is on record?
The self-cleavage was 0.246.

Which self-cleavage does the source give for GGCAGGCAUGGUCCCAGCCUCCUCGCUGGCGCCGGCUGGGCAACAUUCCGAGGGGACCGUCCCCUCGGUAAUGGCGAAUGCGACCCA [C4A G81C] here?
Its self-cleavage is 0.

For GGCCGGCAUGGUCCCAGCCUCCUCGCUGGCGCCGGCUGGGCAACAUUCCGACGGGACCGUCCCCUCGGUAAUGGCAAAUGGGACCCA [G52C G76A], which self-cleavage is on record?
Its self-cleavage is 0.976.

For GGCCGGCAUGGUCCCAGCCCCCUCGCUGUCGCCGGCUGGGCAACAUUCCGAGGGGACCGUCCCCUCGGUAAUGGCGAAUGGGACCCA [U20C G29U], which self-cleavage is on record?
The self-cleavage was 0.0519.

For GGCCGGCAUGGUCCCAGCCUUCUCGCUGGCGCCGGCUGGGCGACAUUCCGAGGGGACCGUCCCCUCGGUAAUGGCGAAUGGGACCCA [C21U A42G], which self-cleavage is on record?
Its self-cleavage is 0.0652.

With GGCCGGCAUGGUCCCAGCCGCCUCGCUGGCGCCGGCUGGGCAACAUUCCGAGGGGACCGUCCCCUCGGUAAUGGCGAAUGGCACCCA [U20G G82C] as the variant, how does the self-cleavage read?
The self-cleavage was 0.246.

For GGCCGGCAUGGUCCCAGCCUCCUCGCUGGCGCCGGCUGGGCAACAUUCCGAGGGGACCUUCCCCUCGGUACUGGCGAAUGGGACCCA [G59U A71C], which self-cleavage is on record?
Its self-cleavage is 0.895.

With GGCCGGCAUGGUCCCAGCCUCCUCGCUGGCGCCGGCUGGGCAACAUUCCGAGGGGACCGUCCCCUCGGUAAUGGCGAAUGGGAUCCG [C84U A87G] as the variant, how does the self-cleavage read?
Its self-cleavage is 0.437.
